T1: GRIP1_3, Q9Y3R0
T1 sequence (Q9Y3R0 247-346, limits assumed, looked up): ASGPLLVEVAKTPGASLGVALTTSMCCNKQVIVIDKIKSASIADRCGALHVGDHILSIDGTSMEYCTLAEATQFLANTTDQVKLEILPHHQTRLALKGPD

T2: APBA1_2, Q02410
T2 sequence (Q02410 742-832, limits assumed, looked up): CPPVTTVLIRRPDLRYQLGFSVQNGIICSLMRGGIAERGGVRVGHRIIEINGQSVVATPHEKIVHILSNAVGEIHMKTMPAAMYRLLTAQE

T3: APBA2_1, Q99767
T3 sequence (Q99767 563-664, limits assumed, looked up): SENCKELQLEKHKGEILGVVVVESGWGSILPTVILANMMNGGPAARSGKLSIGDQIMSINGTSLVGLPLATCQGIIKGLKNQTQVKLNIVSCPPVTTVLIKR

T4: PDZD7_3, Q9H5P4
T4 sequence (Q9H5P4 857-944, limits assumed, looked up): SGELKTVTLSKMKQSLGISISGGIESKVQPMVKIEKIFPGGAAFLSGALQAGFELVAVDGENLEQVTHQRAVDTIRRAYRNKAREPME

T5: LNX2_3, Q8N448
T5 sequence (Q8N448 463-564, limits assumed, looked up): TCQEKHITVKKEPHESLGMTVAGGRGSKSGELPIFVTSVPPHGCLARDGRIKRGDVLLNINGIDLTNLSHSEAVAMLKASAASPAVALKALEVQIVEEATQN

T6: TJP3_3, O95049
T6 sequence (O95049 375-456, limits assumed, looked up): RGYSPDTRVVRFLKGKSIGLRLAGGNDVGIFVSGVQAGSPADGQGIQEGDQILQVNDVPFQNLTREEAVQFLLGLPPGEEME

T7: HTRA3, P83110
T7 sequence (P83110 354-453, limits assumed, looked up): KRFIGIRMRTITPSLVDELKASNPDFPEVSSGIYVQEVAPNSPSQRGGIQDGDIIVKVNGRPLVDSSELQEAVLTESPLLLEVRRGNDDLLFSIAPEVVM

T8: NHERF3_3, Q5T2W1
T8 sequence (Q5T2W1 238-333, limits assumed, looked up): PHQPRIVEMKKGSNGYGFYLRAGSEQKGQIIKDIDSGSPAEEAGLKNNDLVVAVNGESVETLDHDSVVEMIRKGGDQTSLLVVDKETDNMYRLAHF

T9: PDZD2_2, O15018
T9 sequence (O15018 329-429, limits assumed, looked up): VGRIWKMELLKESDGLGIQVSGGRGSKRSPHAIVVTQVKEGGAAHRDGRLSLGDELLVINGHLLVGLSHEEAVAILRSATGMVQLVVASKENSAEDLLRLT

T10: NHERF3_4, Q5T2W1
T10 sequence (Q5T2W1 373-468, limits assumed, looked up): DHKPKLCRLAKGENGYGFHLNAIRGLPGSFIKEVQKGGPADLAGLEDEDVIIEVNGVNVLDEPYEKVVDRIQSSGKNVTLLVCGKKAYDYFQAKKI

T11: APBA3_1, O96018
T11 sequence (O96018 389-490, limits assumed, looked up): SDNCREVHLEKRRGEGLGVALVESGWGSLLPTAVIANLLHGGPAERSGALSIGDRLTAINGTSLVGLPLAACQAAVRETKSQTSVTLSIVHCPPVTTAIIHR

T12: DFNB31_3, Q9P202
T12 sequence (Q9P202 811-907, limits assumed, looked up): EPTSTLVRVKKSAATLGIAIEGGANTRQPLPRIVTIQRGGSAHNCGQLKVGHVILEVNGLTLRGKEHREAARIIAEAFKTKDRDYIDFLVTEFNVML

T13: LRRC7, Q96NW7
T13 sequence (Q96NW7 1440-1537, limits assumed, looked up): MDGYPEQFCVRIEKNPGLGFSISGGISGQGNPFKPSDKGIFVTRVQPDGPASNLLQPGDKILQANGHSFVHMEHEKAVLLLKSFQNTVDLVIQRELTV

T14: DVL3, Q92997
T14 sequence (Q92997 244-331, limits assumed, looked up): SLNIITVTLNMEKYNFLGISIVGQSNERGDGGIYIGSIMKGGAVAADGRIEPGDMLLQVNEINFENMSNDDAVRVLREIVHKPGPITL


Tests used:
Experiment in all cases: holdup assay
Set-up in all cases: key: below the threshold = too weak to quantify, mostly under pKd 3.1 to 4
Conditions in all cases: plain residues with an end cap or a label only (N-terminal biotin on a linker: ado-ado)
GRIP1_3, Q9Y3R0 = target: T1, GRIP1_3, Q9Y3R0
APBA1_2, Q02410 = target: T2, APBA1_2, Q02410
IL16_3, Q14005 = target: IL16_3, Q14005
IL16_3, Q14005, sequence (Q14005 1107-1207): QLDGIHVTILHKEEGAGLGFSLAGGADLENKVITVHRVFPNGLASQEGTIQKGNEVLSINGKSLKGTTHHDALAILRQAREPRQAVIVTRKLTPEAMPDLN

APBA2_1, Q99767 = target: T3, APBA2_1, Q99767
GIPC2, Q8TF65 = target: GIPC2, Q8TF65
GIPC2, Q8TF65, sequence (Q8TF65 112-203): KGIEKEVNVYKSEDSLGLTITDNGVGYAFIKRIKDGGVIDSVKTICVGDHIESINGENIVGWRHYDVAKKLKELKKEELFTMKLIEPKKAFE

Inadl_9, Q8NI35 = target: Inadl_9, Q8NI35
Inadl_9, Q8NI35, sequence (Q8NI35 1530-1615): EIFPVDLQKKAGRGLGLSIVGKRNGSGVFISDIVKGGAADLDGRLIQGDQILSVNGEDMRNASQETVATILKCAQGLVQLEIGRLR

PDZD7_3, Q9H5P4 = target: T4, PDZD7_3, Q9H5P4
LNX1_1, Q8TBB1 = target: LNX1_1, Q8TBB1
LNX1_1, Q8TBB1, sequence (Q8TBB1 261-371): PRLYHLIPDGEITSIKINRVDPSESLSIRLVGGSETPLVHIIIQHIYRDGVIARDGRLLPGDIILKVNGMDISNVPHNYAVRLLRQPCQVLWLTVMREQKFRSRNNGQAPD

LNX2_3, Q8N448 = target: T5, LNX2_3, Q8N448
TJP3_3, O95049 = target: T6, TJP3_3, O95049
FRMPD2_3, Q68DX3 = target: FRMPD2_3, Q68DX3
FRMPD2_3, Q68DX3, sequence (Q68DX3 1073-1166): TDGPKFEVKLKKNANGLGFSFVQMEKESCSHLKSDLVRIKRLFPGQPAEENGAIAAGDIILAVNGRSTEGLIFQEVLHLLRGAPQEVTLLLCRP

TJP1_3, Q07157 = target: TJP1_3, Q07157
TJP1_3, Q07157, sequence (Q07157 416-512): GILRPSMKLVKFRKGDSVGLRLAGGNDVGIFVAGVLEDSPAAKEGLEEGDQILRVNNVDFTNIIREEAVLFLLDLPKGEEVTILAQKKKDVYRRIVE

HTRA3, P83110 = target: T7, HTRA3, P83110
NHERF3_3, Q5T2W1 = target: T8, NHERF3_3, Q5T2W1
PDZD2_2, O15018 = target: T9, PDZD2_2, O15018
MAST1, Q9Y2H9 = target: MAST1, Q9Y2H9
MAST1, Q9Y2H9, sequence (Q9Y2H9 962-1065): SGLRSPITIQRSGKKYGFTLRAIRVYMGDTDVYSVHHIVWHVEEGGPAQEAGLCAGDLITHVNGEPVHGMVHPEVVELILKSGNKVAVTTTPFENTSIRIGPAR

NHERF3_4, Q5T2W1 = target: T10, NHERF3_4, Q5T2W1
APBA3_1, O96018 = target: T11, APBA3_1, O96018
GRIP2_7, Q9C0E4 = target: GRIP2_7, Q9C0E4
GRIP2_7, Q9C0E4, sequence (Q9C0E4 934-1023): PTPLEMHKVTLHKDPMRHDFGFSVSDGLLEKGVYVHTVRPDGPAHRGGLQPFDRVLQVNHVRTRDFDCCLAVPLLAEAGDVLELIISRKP

DFNB31_3, Q9P202 = target: T12, DFNB31_3, Q9P202
Inadl_5, Q8NI35 = target: Inadl_5, Q8NI35
Inadl_5, Q8NI35, sequence (Q8NI35 673-780): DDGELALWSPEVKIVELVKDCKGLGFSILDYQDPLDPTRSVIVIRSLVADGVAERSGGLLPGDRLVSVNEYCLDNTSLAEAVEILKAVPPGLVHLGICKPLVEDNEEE

DLG2_2, Q15700 = target: DLG2_2, Q15700
DLG2_2, Q15700, sequence (Q15700 189-283): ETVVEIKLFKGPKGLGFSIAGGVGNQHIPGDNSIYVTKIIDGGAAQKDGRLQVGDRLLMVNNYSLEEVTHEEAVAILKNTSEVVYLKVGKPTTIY

LRRC7, Q96NW7 = target: T13, LRRC7, Q96NW7
DVL3, Q92997 = target: T14, DVL3, Q92997

Row | Binder | pKd (GRIP1_3, Q9Y3R0) | pKd (APBA1_2, Q02410) | pKd (IL16_3, Q14005) | pKd (APBA2_1, Q99767) | pKd (GIPC2, Q8TF65) | pKd (Inadl_9, Q8NI35) | pKd (PDZD7_3, Q9H5P4) | pKd (LNX1_1, Q8TBB1) | pKd (LNX2_3, Q8N448) | pKd (TJP3_3, O95049) | pKd (FRMPD2_3, Q68DX3) | pKd (TJP1_3, Q07157) | pKd (HTRA3, P83110) | pKd (NHERF3_3, Q5T2W1) | pKd (PDZD2_2, O15018) | pKd (MAST1, Q9Y2H9) | pKd (NHERF3_4, Q5T2W1) | pKd (APBA3_1, O96018) | pKd (GRIP2_7, Q9C0E4) | pKd (DFNB31_3, Q9P202) | also measured
1 | LPHPHSTTRV [NLGN2, Q8NFZ4] | below the threshold | below the threshold | below the threshold | below the threshold | below the threshold | below the threshold | 4.26 | 3.64 | below the threshold | below the threshold | below the threshold | below the threshold | below the threshold | below the threshold | below the threshold | 4.64 | below the threshold | below the threshold | below the threshold | below the threshold | pKd (Inadl_5, Q8NI35): below the threshold; pKd (DLG2_2, Q15700): 3.59; pKd (LRRC7, Q96NW7): below the threshold; pKd (DVL3, Q92997): below the threshold
2 | QGLAERISVL [PRKD2, Q9BZL6] | below the threshold | 4.05 | below the threshold | below the threshold | below the threshold | below the threshold | 5.21 | 3.86 | below the threshold | below the threshold | below the threshold | below the threshold | below the threshold | below the threshold | 4.32 | 4.52 | 3.73 | below the threshold | below the threshold | 4.26 | pKd (Inadl_5, Q8NI35): below the threshold; pKd (DLG2_2, Q15700): below the threshold; pKd (LRRC7, Q96NW7): below the threshold; pKd (DVL3, Q92997): below the threshold
3 | PAPSSGKDYV [CLDN1, O95832] | below the threshold | 4.09 | below the threshold | below the threshold | below the threshold | 3.61 | below the threshold | below the threshold | below the threshold | 3.55 | below the threshold | below the threshold | 3.95 | below the threshold | 4.59 | 3.51 | below the threshold | below the threshold | 3.63 | below the threshold | pKd (Inadl_5, Q8NI35): below the threshold; pKd (DLG2_2, Q15700): below the threshold; pKd (LRRC7, Q96NW7): below the threshold; pKd (DVL3, Q92997): below the threshold

The next lines start with results.

Row | pKd (GRIP1_3, Q9Y3R0) | pKd (APBA1_2, Q02410) | pKd (IL16_3, Q14005) | pKd (APBA2_1, Q99767) | pKd (GIPC2, Q8TF65) | pKd (Inadl_9, Q8NI35) | pKd (PDZD7_3, Q9H5P4) | pKd (LNX1_1, Q8TBB1) | pKd (LNX2_3, Q8N448) | pKd (TJP3_3, O95049) | pKd (FRMPD2_3, Q68DX3) | pKd (TJP1_3, Q07157) | pKd (HTRA3, P83110) | pKd (NHERF3_3, Q5T2W1) | pKd (PDZD2_2, O15018) | pKd (MAST1, Q9Y2H9) | pKd (NHERF3_4, Q5T2W1) | pKd (APBA3_1, O96018) | pKd (GRIP2_7, Q9C0E4) | pKd (DFNB31_3, Q9P202) | Binder | also measured
4 | below the threshold | below the threshold | below the threshold | below the threshold | below the threshold | below the threshold | below the threshold | below the threshold | below the threshold | below the threshold | below the threshold | below the threshold | below the threshold | below the threshold | below the threshold | 3.55 | below the threshold | below the threshold | below the threshold | below the threshold | NHSSSPETTA [TRMT13, Q9NUP7] | pKd (Inadl_5, Q8NI35): below the threshold; pKd (DLG2_2, Q15700): below the threshold; pKd (LRRC7, Q96NW7): below the threshold; pKd (DVL3, Q92997): below the threshold
5 | below the threshold | 3.92 | below the threshold | below the threshold | below the threshold | below the threshold | 4.68 | 4.04 | below the threshold | below the threshold | below the threshold | below the threshold | below the threshold | below the threshold | 4.25 | 4.77 | below the threshold | below the threshold | below the threshold | below the threshold | SAKVRTVTSV [RASL11B, Q9BPW5] | pKd (Inadl_5, Q8NI35): below the threshold; pKd (DLG2_2, Q15700): 4.79; pKd (LRRC7, Q96NW7): below the threshold; pKd (DVL3, Q92997): below the threshold
6 | 3.49 | 4.33 | below the threshold | below the threshold | 4.32 | 3.93 | 4.82 | 4.19 | 3.62 | 3.57 | below the threshold | 3.5 | below the threshold | below the threshold | 4.99 | 4.21 | below the threshold | below the threshold | 3.58 | below the threshold | EVEEFPETSV [TRPV3, Q8NET8] | pKd (Inadl_5, Q8NI35): 3.56; pKd (DLG2_2, Q15700): 4.2; pKd (LRRC7, Q96NW7): 4.08; pKd (DVL3, Q92997): 3.59

Source: article PMC9482650, “Quantitative fragmentomics allow affinity mapping of interactomes” (Nature Communications, 2022)
